Where a chain is given by its changes, count along the chain named. Each block holds one binder with its values, some of them ahead of it.
Legend:
[1] = molecular target: T1, human B7-H3 on tumor cells (Hs578T, MDA-MB-436, MDA-MB-468, MDA-MB-231, MDA-MB-453, HT-29) (human, UniProt Q5ZPR3 29-534); assay: flow cytometry, MFI titration on HT-29 cells
T1 construct: whole, on cells; also called target cells
T1 sequence (looked up): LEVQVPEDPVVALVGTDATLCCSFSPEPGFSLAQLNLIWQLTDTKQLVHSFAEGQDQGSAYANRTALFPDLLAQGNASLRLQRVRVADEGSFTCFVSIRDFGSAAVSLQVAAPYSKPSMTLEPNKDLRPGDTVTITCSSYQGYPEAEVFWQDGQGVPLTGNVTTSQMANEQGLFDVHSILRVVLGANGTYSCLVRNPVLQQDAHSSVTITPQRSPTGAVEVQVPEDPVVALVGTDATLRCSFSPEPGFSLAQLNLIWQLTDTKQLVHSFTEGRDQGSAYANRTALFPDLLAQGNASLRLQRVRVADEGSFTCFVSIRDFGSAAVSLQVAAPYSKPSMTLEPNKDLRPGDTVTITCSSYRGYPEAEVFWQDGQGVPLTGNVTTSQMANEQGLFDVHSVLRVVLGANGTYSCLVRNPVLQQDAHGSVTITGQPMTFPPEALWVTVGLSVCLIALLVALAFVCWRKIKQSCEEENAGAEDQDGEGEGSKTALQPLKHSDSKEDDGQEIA
Method: (§1) The collected cells were resuspended with 1% PBSB to adjust the cell density to 2×10⁶ cells/ml, placed in 96-well plates 100 μL (2×10⁵ cells) per well, and blocked for 0.5 hours at 4° C. The blocked cells were centrifuged to discard the supernatant, and a series of diluted antibodies mAb152 and mAb272 were added to the cells. The cells were incubated for 1 hour at 4° C., then centrifuged to discard the supernatant, and washed three times with a PBS solution with 1% BSA (PBSB). Diluted AF64-labeled goat anti-human IgG antibodies (Jackson, Cat. No. 109-605-088) were added to the cells, and the cells were incubated for 1 hour at 4° C. in the dark. The obtained cells were centrifuged to discard the supernatant and then washed twice with 1% PBSB, and cells in each well were resuspended with 100 μL of 1% paraformaldehyde (PF). The signal intensity was detected by flow cytometry. The analysis was performed with the mean fluorescence intensity (MFI) as the Y-axis and the antibody concentration as the X-axis through the software GraphPad Prism 7 to calculate the Kd values for the binding of the murine monoclonal antibodies to the tumor cells.

[2] = molecular target: T1, human B7-H3 on tumor cells (Hs578T, …); assay: flow cytometry, MFI titration on Hs578T cells
Method: as §1

[3] = molecular target: T1, human B7-H3 on tumor cells (Hs578T, …); assay: flow cytometry, MFI titration on MDA-MB-231 cells
Method: as §1

[4] = molecular target: T1, human B7-H3 on tumor cells (Hs578T, …); assay: flow cytometry, MFI titration on MDA-MB-436 cells
Method: as §1

[5] = molecular target: T1, human B7-H3 on tumor cells (Hs578T, …); assay: flow cytometry, MFI titration on MDA-MB-453 cells
Method: as §1

[6] = molecular target: T1, human B7-H3 on tumor cells (Hs578T, …); assay: flow cytometry, MFI titration on MDA-MB-468 cells
Method: as §1

[7] = molecular target: T2, human B7-H3 (purchased from Acro Biosystems) (human, UniProt Q5ZPR3 29-461, limits assumed); assay: ELISA, plate coated with 0.1 µg/mL human B7-H3, HRP goat anti-mouse IgG detection
T2 construct: Bought protein coated on ELISA plates; also called human B7-H3 antigen; human B7-H3 molecules
T2 sequence (looked up): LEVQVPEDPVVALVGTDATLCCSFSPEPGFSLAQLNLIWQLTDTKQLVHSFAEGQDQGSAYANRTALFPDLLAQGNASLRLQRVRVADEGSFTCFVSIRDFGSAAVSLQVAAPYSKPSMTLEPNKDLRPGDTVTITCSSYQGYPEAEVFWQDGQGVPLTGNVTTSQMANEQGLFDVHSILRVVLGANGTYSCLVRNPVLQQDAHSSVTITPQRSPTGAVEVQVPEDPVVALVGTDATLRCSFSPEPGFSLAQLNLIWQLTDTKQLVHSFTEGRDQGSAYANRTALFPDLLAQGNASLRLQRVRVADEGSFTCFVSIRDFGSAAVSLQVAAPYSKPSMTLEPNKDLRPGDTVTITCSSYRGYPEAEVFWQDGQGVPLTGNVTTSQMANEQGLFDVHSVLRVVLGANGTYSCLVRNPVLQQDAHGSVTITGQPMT
Method: Plates were coated with 100 μL of 0.1 μg/mL human B7-H3 (purchased from Acro Biosystems) at room temperature overnight. The coating solution was discarded, and the wells were blocked for 0.5 hours with skimmed milk dissolved in phosphate buffered saline (PBS) and washed with PBS containing 0.05% Tween-20 (PBST). The murine antibodies mAb152 and mAb272 against human B7-H3 to be tested were then diluted to appropriate concentrations, added to plates, 50 μL per well, and incubated at room temperature for 1 hour. The wells were washed with 0.05% PBST, and then 50 μL of HRP-labeled goat anti-mouse IgG polyclonal antibodies (purchased from Jackson Laboratory) was added to each well as the detection antibody and incubated at 37° C. for 1 hour. The cells were washed three times with 0.05% PBST, TMB was added to the plates, 100 μL/well, and color development was performed at room temperature for 5 min. 0.2 M H₂SO₄ was added, 50 μL/well, to stop the color development reaction. The light absorbance values at 450 nm/620 nm were measured by a microplate reader. A graph was drawn by software GraphPad Prism 7 with the absorbance as the Y-axis and the antibody concentration as the X-axis.

His-labeled human B7-H3 = molecular target: T3, His-labeled human B7-H3 (human, UniProt Q5ZPR3 29-461); assay: BLI (ForteBio Octet), His-labeled human B7-H3 on Ni-NTA sensor, antibody 3.125-100 nM
T3 construct: Coupled to a Ni-NTA sensor in BLI; also called antigen B7-H3; not shown: His label
T3 sequence (looked up): T2 sequence (looked up)
Method: The binding affinity constants of the purified murine monoclonal antibodies to the antigen B7-H3 were determined by bio-layer interferometry (BLI) with a ForteBio Octet RED&QK system from PALL Corporation.

[8] = molecular target: T4, murine B7-H3 protein (Sino Biological Inc. Beijing) (mouse, UniProt Q8VE98 29-244, limits assumed); assay: ELISA, plate coated with 0.1 µg/mL murine B7-H3, HRP-labeled antibody, OD 450/620 nm
T4 construct: Bought protein coated on ELISA plates; also called mouse B7-H3 antigen; murine B7-H3 antigen
T4 sequence (looked up): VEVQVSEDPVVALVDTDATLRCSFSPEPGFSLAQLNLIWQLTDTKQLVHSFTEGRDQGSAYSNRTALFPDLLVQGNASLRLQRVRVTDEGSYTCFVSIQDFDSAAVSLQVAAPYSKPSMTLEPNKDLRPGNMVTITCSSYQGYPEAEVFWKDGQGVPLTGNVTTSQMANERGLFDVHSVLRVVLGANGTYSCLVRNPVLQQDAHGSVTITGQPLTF
Method: (§2) The cross-reactivity of the anti-B7-H3 murine monoclonal antibodies with mouse and Cynomolgus monkey B7-H3 antigens was detected in this example.
(§3) Specific experimental procedures are as follows: The plates were coated with 100 μL of 0.1 μg/mL Cynomolgus monkey B7-H3 and murine B7-H3 proteins (Sino Biological Inc. Beijing) at room temperature overnight. The coating solution was discarded, and the wells were blocked for 0.5 hours with skimmed milk dissolved in phosphate buffered saline (PBS) and washed with PBS containing 0.05% Tween-20. 50 μL of purified HRP-labeled B7-H3 monoclonal antibodies was added to each well and incubated at room temperature for 1 hour. The cells were washed five times with PBS containing 0.05% Tween-20, 100 μL of TMB was added to each well, and color development was performed at room temperature for 5 min. 50 μL of 2N H₂SO₄ was added to each well to stop the color development reaction. The values at 450 nm were measured by a microplate reader. The results were imported into Graph Prism to calculate EC₅₀ values.

[9] = molecular target: T5, Cynomolgus monkey B7-H3 protein (Sino Biological Inc. Beijing) (Cynomolgus monkey); assay: ELISA, plate coated with 0.1 µg/mL Cynomolgus monkey B7-H3, HRP-labeled antibody, OD 450/620 nm
T5 construct: Bought protein coated on ELISA plates; also called monkey B7-H3 antigen
Method: as §2, §3

Kd [1]: 1.25 nM
Kd [2]: 0.835 nM
Kd [3]: 0.227 nM
Kd [4]: 5.05 nM
Kd [5]: 0.273 nM
Kd [6]: 2.6 nM
EC50 [7]: 6.69 ng/mL
Kd (His-labeled human B7-H3): 0.015 nM
koff (His-labeled human B7-H3): 3.09e-06 s⁻¹
kon (His-labeled human B7-H3): 207000 M⁻¹ s⁻¹
binding result [8]: no binding (tested: 10 µg/mL)
EC50 (read off the curve) [9]: ~6 ng/mL
B1: murine monoclonal antibody mAb152 (antibody, V domains shown)
VH: QVQLQQPGAELVRPGASVKLSCKASGYTFTAYWMNWVKQRPDQGLEWIGRIDPYDSETRYNQNFRDKARLTVDKSSSTAYMQLSSLTSEDSAVFYCARGVRIFDYWGQGTTLTVSS
VL: DIQMTQSPASLAASVGETVTITCRTSENIDYTLAWYQQKPGKSPQLLIYNANTLEDGVPSRFSGSGSGTHFSLKINSMQPEDTATYFCKQAYDVPRTFGGGTKLEIK

Kd [1]: 2.35 nM
Kd [2]: 1.2 nM
Kd [3]: 0.204 nM
Kd [4]: 5.11 nM
Kd [5]: 0.239 nM
Kd [6]: 3.24 nM
EC50 [7]: 6.16 ng/mL
Kd (His-labeled human B7-H3): < 0.001 nM
koff (His-labeled human B7-H3): < 1e-07 s⁻¹
kon (His-labeled human B7-H3): 220000 M⁻¹ s⁻¹
binding result [8]: no binding (tested: 10 µg/mL)
EC50 (read off the curve) [9]: ~5 ng/mL
B2: murine monoclonal antibody mAb272 (antibody, V domains shown)
VH: B1 VH
VL: B1 VL with H70L, S77N
